Experimental data from US20190359687A1 (Bayer, published 2019).

T1: human glycophorin A on human red blood cells (human, UniProt P02724 20-150)
T1 construct: whole, on cells; also called human GPA; huGPA
T1 sequence (looked up): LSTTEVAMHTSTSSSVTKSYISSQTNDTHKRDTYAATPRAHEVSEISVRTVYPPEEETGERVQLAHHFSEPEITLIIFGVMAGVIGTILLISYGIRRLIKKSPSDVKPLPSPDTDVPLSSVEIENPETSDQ

T2: glycophorin A peptide GP5 (human, biotin at the N-terminus)
T2 construct: Residues 42 to 61 of the human glycophorin A extracellular domain
T2 peptide: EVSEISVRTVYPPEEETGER

B1: TPP-9423 FVIII-scFv fusion protein (other)
chain: DIQLTQSPSFLSASVGDRVTITCRASSSVRYIYWFQQKPGKAPKLLIYATSFRQSGVPSRFSGSGSGTEYTLTISSLQPEDFATYYCHQRNSFPYTFGQGTKLEIKGGGGSGGGGSGGGGSGGGGSEVQLVQSGAEVKKPGASVKVSCKASGYTFTTYAIHWVRQAPGQGLEWMGYINPSSGYTRYNPKFKGRVTMTRDKSTSTAYMELRSLRSDDTAVYYCWTGTRDYWGQGTTVTVSSGGGSGGGGSGLVPRGSGGGSGGGGSGATRRYYLGAVELSWDYMQSDLGELPVDARFPPRVPKSFPFNTSVVYKKTLFVEFTDHLFNIAKPRPPWMGLLGPTIQAEVYDTVVITLKNMASHPVSLHAVGVSYWKASEGAEYDDQTSQREKEDDKVFPGGSHTYVWQVLKENGPMASDPLCLTYSYLSHVDLVKDLNSGLIGALLVCREGSLAKEKTQTLHKFILLFAVFDEGKSWHSETKNSLMQDRDAASARAWPKMHTVNGYVNRSLPGLIGCHRKSVYWHVIGMGTTPEVHSIFLEGHTFLVRNHRQASLEISPITFLTAQTLLMDLGQFLLFCHISSHQHDGMEAYVKVDSCPEEPQLRMKNNEEAEDYDDDLTDSEMDVVRFDDDNSPSFIQIRSVAKKHPKTWVHYIAAEEEDWDYAPLVLAPDDRSYKSQYLNNGPQRIGRKYKKVRFMAYTDETFKTREAIQHESGILGPLLYGEVGDTLLIIFKNQASRPYNIYPHGITDVRPLYSRRLPKGVKHLKDFPILPGEIFKYKWTVTVEDGPTKSDPRCLTRYYSSFVNMERDLASGLIGPLLICYKESVDQRGNQIMSDKRNVILFSVFDENRSWYLTENIQRFLPNPAGVQLEDPEFQASNIMHSINGYVFDSLQLSVCLHEVAYWYILSIGAQTDFLSVFFSGYTFKHKMVYEDTLTLFPFSGETVFMSMENPGLWILGCHNSDFRNRGMTALLKVSSCDKNTGDYYEDSYEDISAYLLSKNNAIEPRSFSQNDENQSPRSFQKKTRHYFIAAVERLWDYGMSSSPHVLRNRAQSGSVPQFKKVVFQEFTDGSFTQPLYRGELNEHLGLLGPYIRAEVEDNIMVTFRNQASRPYSFYSSLISYEEDQRQGAEPRKNFVKPNETKTYFWKVQHHMAPTKDEFDCKAWAYFSDVDLEKDVHSGLIGPLLVCHTNTLNPAHGRQVTVQEFALFFTIFDETKSWYFTENMERNCRAPCNIQMEDPTFKENYRFHAINGYIMDTLPGLVMAQDQRIRWYLLSMGSNENIHSIHFSGHVFTVRKKEEYKMALYNLYPGVFETVEMLPSKAGIWRVECLIGEHLHAGMSTLFLVYSNKCQTPLGMASGHIRDFQITASGQYGQWAPKLARLHYSGSINAWSTKEPFSWIKVDLLAPMIIHGIKTQGARQKFSSLYISQFIIMYSLDGKKWQTYRGNSTGTLMVFFGNVDSSGIKHNIFNPPIIARYIRLHPTHYSIRSTLRMELMGCDLNSCSMPLGMESKAISDAQITASSYKTNMFATWSPSKARLHLQGRSNAWRPQVNNPKEWLQVDFQKTMKVTGVTTQGVKSLLTSMYVKEFLISSSQDGHQWTLFFQNGKVKVFQGNQDSFTPVVNSLDPPLLTRYLRIHPQSWVHQIALRMEVLGCEAQDLY
notes: also called 9423 (F2196K)
B2: TPP-9161 FVIII-scFv fusion protein (other)
chain: ATRRYYLGAVELSWDYMQSDLGELPVDARFPPRVPKSFPFNTSVVYKKTLFVEFTDHLFNIAKPRPPWMGLLGPTIQAEVYDTVVITLKNMASHPVSLHAVGVSYWKASEGAEYDDQTSQREKEDDKVFPGGSHTYVWQVLKENGPMASDPLCLTYSYLSHVDLVKDLNSGLIGALLVCREGSLAKEKTQTLHKFILLFAVFDEGKSWHSETKNSLMQDRDAASARAWPKMHTVNGYVNRSLPGLIGCHRKSVYWHVIGMGTTPEVHSIFLEGHTFLVRNHRQASLEISPITFLTAQTLLMDLGQFLLFCHISSHQHDGMEAYVKVDSCPEEPQLRMKNNEEAEDYDDDLTDSEMDVVRFDDDNSPSFIQIRSVAKKHPKTWVHYIAAEEEDWDYAPLVLAPDDRSYKSQYLNNGPQRIGRKYKKVRFMAYTDETFKTREAIQHESGILGPLLYGEVGDTLLIIFKNQASRPYNIYPHGITDVRPLYSRRLPKGVKHLKDFPILPGEIFKYKWTVTVEDGPTKSDPRCLTRYYSSFVNMERDLASGLIGPLLICYKESVDQRGNQIMSDKRNVILFSVFDENRSWYLTENIQRFLPNPAGVQLEDPEFQASNIMHSINGYVFDSLQLSVCLHEVAYWYILSIGAQTDFLSVFFSGYTFKHKMVYEDTLTLFPFSGETVFMSMENPGLWILGCHNSDFRNRGMTALLKVSSCDKNTGDYYEDSYEDISAYLLSKNNAIEPRSFSQNGGGGSTGGTGGSSGGGTGSGGGGTGGSGGTDIQLTQSPSFLSASVGDRVTITCRASSSVRYIYWFQQKPGKAPKLLIYATSFRQSGVPSRFSGSGSGTEYTLTISSLQPEDFATYYCHQRNSFPYTFGQGTKLEIKGGGGSGGGGSGGGGSGGGGSEVQLVQSGAEVKKPGASVKVSCKASGYTFTTYAIHWVRQAPGQGLEWMGYINPSSGYTRYNPKFKGRVTMTRDKSTSTAYMELRSLRSDDTAVYYCWTGTRDYWGQGTTVTVSSGGGGSQNPPVLKRHQREITDENQSPRSFQKKTRHYFIAAVERLWDYGMSSSPHVLRNRAQSGSVPQFKKVVFQEFTDGSFTQPLYRGELNEHLGLLGPYIRAEVEDNIMVTFRNQASRPYSFYSSLISYEEDQRQGAEPRKNFVKPNETKTYFWKVQHHMAPTKDEFDCKAWAYFSDVDLEKDVHSGLIGPLLVCHTNTLNPAHGRQVTVQEFALFFTIFDETKSWYFTENMERNCRAPCNIQMEDPTFKENYRFHAINGYIMDTLPGLVMAQDQRIRWYLLSMGSNENIHSIHFSGHVFTVRKKEEYKMALYNLYPGVFETVEMLPSKAGIWRVECLIGEHLHAGMSTLFLVYSNKCQTPLGMASGHIRDFQITASGQYGQWAPKLARLHYSGSINAWSTKEPFSWIKVDLLAPMIIHGIKTQGARQKFSSLYISQFIIMYSLDGKKWQTYRGNSTGTLMVFFGNVDSSGIKHNIFNPPIIARYIRLHPTHYSIRSTLRMELMGCDLNSCSMPLGMESKAISDAQITASSYKTNMFATWSPSKARLHLQGRSNAWRPQVNNPKEWLQVDFQKTMKVTGVTTQGVKSLLTSMYVKEFLISSSQDGHQWTLFFQNGKVKVFQGNQDSFTPVVNSLDPPLLTRYLRIHPQSWVHQIALRMEVLGCEAQDLY
notes: also called PPB 7644

What was measured:
[1] = biological target: T3, Cynomolgus monkey glycophorin A on Cynomolgus monkey red blood cells (Cynomolgus monkey); assay: partition to Cyno RBC, human HemA plasma, 120 min;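 further: FVIII fusion spiked at 1 IU/mL into RBC suspension at whole-blood density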
T3 construct: whole, on cells; also called Cyno GPA; Cyno RBC

[2] = biological target: T1, human glycophorin A on human red blood …; assay: partition to human RBC, vWF deficient plasma, 1 min
[3] = biological target: T1, human glycophorin A on human red blood …; assay: partition to human RBC, vWF deficient plasma, 5 min
[4] = biological target: T1, human glycophorin A on human red blood …; assay: partition to human RBC, vWF deficient plasma, 15 min
[5] = biological target: T1, human glycophorin A on human red blood …; assay: partition to human RBC, vWF deficient plasma, 30 min
[6] = biological target: T1, human glycophorin A on human red blood …; assay: partition to human RBC, vWF deficient plasma, 60 min
[7] = biological target: T1, human glycophorin A on human red blood …; assay: partition to human RBC, vWF deficient plasma, 120 min
[8] = biological target: T2, glycophorin A peptide GP5; assay: Octet, GP5 peptide on the probe, fusion protein in solution, 1:1 fit

Row | Binder | % bound to Cyno RBC [1] [%] | percentage bound to human RBC [2] [%] | percentage bound to human RBC [3] [%] | percentage bound to human RBC [4] [%] | percentage bound to human RBC [5] [%] | percentage bound to human RBC [6] [%] | percentage bound to human RBC [7] [%] | Kd [8] [nM] | koff [8] [s⁻¹] | kon [8] [M⁻¹ s⁻¹]
1 | B1 | 62.8 | 44.1 | 87.4 | 89.9 | 91.2 | 80.3 | 92.3 | 1.27 | 0.00066 | 520000
2 | B2 | – | 51.4 | 78.4 | 82.9 | 85.9 | 86.2 | 84.2 | – | – | –
